Assay results reported in patent publication US20190031751A1 (University of Texas, published 2019).
Each block holds one binder with its values, some of them ahead of it.

Molecular target: T1, Human epidermal growth factor (EGF)-like domain multiple 6 (EGFL6) protein (human, UniProt Q8IUX8 22-553)
T1 construct: Secreted protein; also called human EGFL6; recombinant human EGFL6
T1 sequence (looked up): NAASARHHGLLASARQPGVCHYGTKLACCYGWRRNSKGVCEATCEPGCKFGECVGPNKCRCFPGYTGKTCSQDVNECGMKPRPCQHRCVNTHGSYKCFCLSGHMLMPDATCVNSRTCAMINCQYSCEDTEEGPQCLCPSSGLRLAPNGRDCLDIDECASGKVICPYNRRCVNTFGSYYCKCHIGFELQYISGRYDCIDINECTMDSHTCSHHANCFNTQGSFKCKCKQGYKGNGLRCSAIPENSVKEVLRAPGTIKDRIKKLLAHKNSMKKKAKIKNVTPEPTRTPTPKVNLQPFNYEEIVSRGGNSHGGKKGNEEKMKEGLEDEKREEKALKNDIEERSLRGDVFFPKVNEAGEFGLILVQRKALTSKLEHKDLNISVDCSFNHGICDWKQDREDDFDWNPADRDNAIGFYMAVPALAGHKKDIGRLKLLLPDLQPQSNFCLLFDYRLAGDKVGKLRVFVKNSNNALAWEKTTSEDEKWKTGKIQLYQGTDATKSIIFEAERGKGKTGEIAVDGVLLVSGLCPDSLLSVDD
Experiment: ELISA titration on coated EGFL6, 4-parameter curve fit
Protocol: Binding of EGFL6 by monoclonal antibodies was first screened by ELISA using supernatants collected from the B cell cultures (FIG. 2). ELISA titration was used to determine the binding affinity of a panel of monoclonal antibodies to EGFL6 antigen (FIG. 3). Binding constants (KD and/or EC 50) of a panel of monoclonal antibodies were estimated using the 4 parameter curve fitting with Prism GraphPad program. For Biacore analysis, all experiments were performed at 25° C. at a flow rate of 45 μl/min. An anti-human IgG Fc antibody (from ThermoFisher, at 50 μg/ml each in acetate buffer, pH 5.0) was immobilized onto a carboxymethyl dextran sensorchip (CMS) using amine coupling procedures based on instruction from the manufacturer. Purified rabbit/human chimeric antibody to be tested was diluted at a concentration of 5 μg/ml in 0.5% P20, HBS-EP buffer and injected on FC2 to reach 500 to 1000 RU. FC1 was used as the reference cell. Specific signals correspond to the difference of signals obtained on FC2 versus FC1. The analyte (recombinant human EGFL6, apparent molecular weight 60 kDa on SDS-PAGE gel) was injected during 90 sec at series of concentration dilutions (100, 50, 25, 12.5, 6.25, and 3.13, 1.56 nM) in 0.5% P20, HBS-EP buffer. These concentrations were prepared from stock solution in 0.5% P20, HBS-EP. The dissociation phase of the analyte was monitored over a 30 minutes period. Running buffer was also injected under the same conditions as a double reference. After each running cycle, both flow cells were regenerated by injecting 20 to 45 μl of Glycine-HCl buffer pH 1.5. Binding KD on EGFL6 was calculated by koff/kₒₙ kinetic rate for each EGFL6 monoclonal antibodies (Table 3).

B2: E1-38 monoclonal antibody (antibody, V domains shown)
VH: EQSVKESGGDLVKPEGSLTLTCTASGFSFNSGYWVCWVRQAPGKGLEWIACIYTSSPTGAIYYATWAKGRFTISQTSSTTVTLQMTSLTAADTATYFCTRDNFGGGGSASKLWGPGTLVTISS
VL: ELVMTQTPSSKSVPVGGTVTIDCQASESVYSNNRCAWYQQKPGQPPKLLIYYASTLASGVPSRFKCSGSGTRFTLTISGVQCEDAATYYCAGYKTADSDGLGFGGGTEVEIK
notes: Rabbit variable domains
- EC50: 5.81 ng/mL

B3: E1-142 monoclonal antibody (antibody, V domains shown)
VH: QSLEESGGDLVKPGASLTLTCTASGFTINNYNINWVRQAPGKGLEWIARIWNGDGSTYYASWAKGRFTISKTSSTTVTLQMTSLTAADTATYFCARNFNLWGPGTLVTISS
VL: ELVLTQTPSPVSAAVGGTVTINCQSSASVYSNNYLSWFQQKPGQPPKPLIYYASTLASGVPSRFKGSGSGTQFTLTISDVQCDDAATYYCAGDYSSSSDMCIFGGGTELEIK
notes: Rabbit variable domains
- EC50: 1.91 ng/mL

B5: E1-34 monoclonal antibody (antibody, V domains shown)
VH: EQSVKESGGGLVQPEGSLTLTCTASGFSFSSIYWICWVRQAPGKGLELIACIQITSGITYYASWAKGRFTISKMSSTTVTLQMTSLTVADTATYFCGRRGYGAYAGTGASDLWGPGTLVTVSS
VL: ELDLTQTASSVSAAVGGTVTINCQSSQSVYNNNNLAWYQQKPGQPPKLLIYEASKLASGVPSRFKGSGSGTQFTLTISGVQCDDAATYYCAGGYAGYIWAFGGGTEVVVK
notes: Rabbit variable domains
- EC50: 0.78 ng/mL

Second part, the binder after the results:

- EC50: 0.44 ng/mL
B1: E2-135 monoclonal antibody (antibody, V domains shown)
VH: QSVKESEGDLVKPGASLTLTCKASGFDFSSSYFMCWVRQAPGRGLEWIACIYTVISRKTYYASWAKGRFTISKTSATTVDLQMTSLTAADTATYFCARSATIERLDLWGQGTLVTVSS
VL: ELDLTQTPSPVSAPVGGTVTINCQASESVYNNYRLSWYQQKPGQPPKLLIYAASTLASGVPSRFKGSGSGTQFTLAISDVVCDDAATYYCVGYKSGYIDSIPFGGGTEVVVK
notes: Rabbit variable domains; also called mAb135

- EC50: 0.37 ng/mL
B4: E2-93 monoclonal antibody (antibody, V domains shown)
VH: QSVKESEGGLVQPEGSLTLTCKASGFSFSSYGVNWVRQAPGKGLEWIAYIGLSSEITYYAGWAKGRFTISKPSSTTVTLQMTSLTAADTATYFCVRDLYHSNGLWGPGTLVTISS
VL: ELDLTQTPSPVSAAVGGTVTVSCQASESVYNNNRLSWYQQKPGQPPKLLIYYASTLASGVPSRFSGSGSGTQFTLTISSVQCADAATYYCVAFKGYGTDGNAFGGGTEVEIK
notes: Rabbit variable domains; also called Mab #93; mAb93
